Laboratory results reported in publication PMC5994897.
Values belong to the molecule of their own block, whether it stands above or below them.

Assays:
[1] = target: yeast αβ-tubulin (wild type) (yeast (overexpressed in S. cerevisiae)) (UniProt P09733); experiment: AUC
[2] = target: Yeast tubulin with a C-terminal … tag, ReAsH-labeled (yeast (overexpressed in S. cerevisiae)) (UniProt P09733); experiment: TIRF microscopy microtubule-binding titration

Kd [1]: 1.68 µM
Molecule: Stu1-TOG2 (305-567) (from UniProt P38198 305-567) (domain or fragment)

Kd [2]: 12 µM
B1: Alexa-488-labeled Stu1-TOG2 with a KCK tag (domain or fragment)
chain: DPAMKKNYESLNQLQQDLENLLAPFQSVKETEQNWKLRQSNIIELDNIISGNIPKDNPEEFVTVIKEVQLIELISRATSSLRTTLSLTALLFLKRLIHILNDQLPLSILDQIFVIFKNLLSSTKKISSQTAFHCLITLIIDINHFHNKLFQLSFLLINEKTVTPRFCSAILLRSFLIKFNDSNLSLNNSNTTSPTSKLENNIIYIEEWLKKGISDSQTTVREAMRLTFWYFYKCYPTNAKRLLSSSFSPQLKKATELAIPAHL
modifications: Alexa-488 label

Kd [2]: 40 µM
B2: Alexa-488-labeled Stu1-TOG1 with a KCK tag (domain or fragment)
chain: NSNTNTHPDDSFPLYTVFKDESVPIEEKMALLTRFKGHVKKELVNESSIQAYFAALLFISGHYAYRSYPRLIFLSHSSLCYLIKRVAMQSPVQFNDTLVEQLLNHLIFELPNEKKFWLASIKAIEAIYLVNPSKIQAILANFLRRPSENQNGDYLNRIKSTLLTIDELIQINEKNNSNHLQLLRFFMLSFTNLLNNNLNEHANDDNNNVIIELIFDIMYKYLKMDDENSQDLIDGFINDLEVEKFKQKFISLAKSQDQHGSQEDKS
modifications: Alexa-488 label
